We go through eleven substances from patent publication US20240132625A1.

Assay [1] has as its target HER2 ectodomain (biotinylated Her2/ERBB2, Sino Biological) (human) (UniProt P04626). Put plainly: BLI, HER2 ectodomain on tip. Background: BLI is a label-free optical method that tracks binding on a fibre tip over time.
Assay [2] deals with Receptor-binding domain of the SARS-CoV-2 spike protein (biotinylated, Acrobio system) (SARS-CoV-2) (UniProt P0DTC2). Put plainly: BLI, antigen on streptavidin tip.
The target is the same in assay [3]. The experiment in a line: BLI, antigen on streptavidin tip, 1:1 fit.
Assay [4] shares this target. The experiment in a line: BLI, antigen on streptavidin tip; below the instrument's limit.
Assay [5] addresses CD20 immobilized on a sensor tip (UniProt P11836). Put plainly: BLI, CD20 on tip; effective KD.
Assay [6] shares this target. The experiment in a line: BLI, […], antibody 6.25-50.0 nM, 1:1 fit.
The target is the same in assay [7]. Put plainly: BLI, CD20 on tip.
For assay [8] the target is unchanged. Put plainly: BLI, human CD20 immobilized on the sensor tip, antibody in half dilution from 50 nM, 1:1 fit.
Assay [9] has as its target HER2 ectodomain (biotinylated Her2/ERBB2, Sino Biological) (human) (UniProt P04626). The experiment in a line: BLI, antigen on streptavidin tip, 1:1 fit.
The target is the same in assay [10]. Put plainly: BLI, HER2 ectodomain immobilized on the sensor tip, antibody in half dilution from 500 nM, 1:1 fit.
The target is the same in assay [11]. The experiment in a line: BLI, HER2 ectodomain on tip; effective KD.
The target is the same in assay [12]. Put plainly: BLI, […], antibody 6.25-50 nM, 1:1 fit.
For assay [13] the target is unchanged. The experiment in a line: BLI, […], antibody 3.1-[…], 1:1 fit.
The target is the same in assay [14]. The experiment in a line: BLI, antigen on streptavidin tip; below the instrument's limit.
The target of the next assay is CD20 on SU-DHL5 cells (UniProt P11836). The experiment in a line: flow cytometry on SU-DHL5 cells, muGFP signal, 10 nM antibody.
In assay [15] the target is HER2 ectodomain (biotinylated Her2/ERBB2, Sino Biological) (human) (UniProt P04626). Put plainly: BLI, HER2 ectodomain immobilized on the sensor tip, antibody in half dilution from 250 nM, 1:1 fit.

On to Trastuzumab(N30A/H91A/Y100A) (antibody), for which the Kd (usually the constant that tells how readily two partners part at equilibrium) in [1] was found to be 243 nM.
As to glCV30-SDF-1α(8-67)^(H) (antibody), the fold increase of binding avidity over glCV30 in assay [2] was > 130 fold. The kon (in general, the second-order rate constant of association) in [3] amounted to 770000 M⁻¹ s⁻¹. Besides, the dissociation constant (Kd) in assay [4] is < 0.01 nM.
For the substance “SLy1(254-316)^(H)-Obinutuzumab(Y101L)/HetFc-SDF-1α(8-67)^(H) (antibody)”, in assay [5], the Kd turned out to be 0.13 nM. Further, in assay [6], the koff (commonly the first-order rate constant of dissociation) amounted to 2.3e-05 s⁻¹ and the association rate constant (kon) was determined as 180000 M⁻¹ s⁻¹.
Obinutuzumab(Y101L) (antibody) gave a Kd in [7] of 30.4 nM. In assay [8], this substance registered a koff of 0.01 s⁻¹ and a kon of 330000 M⁻¹ s⁻¹.
In assay [9], Trastuzumab(N30A/H91A) (antibody) came in with a Kd of 2.1 nM and a kon of 190000 M⁻¹ s⁻¹.
Take “SLy1(254-316)^(H)-Trastuzumab(N30A/H91A/Y100A)/HetFc (antibody)”: the Kd in [10] came out at 373 nM.
On to “Trastuzumab(N30A/H91A)-HomoCC^(H) (antibody)”, for which the Kd in assay [11] was < 0.01 nM.
For “Trastuzumab(N30A/H91A)-SDF-1α(8-67)^(L) (antibody)”, in assay [11], the Kd is < 0.01 nM. In [12], the koff was < 1e-07 s⁻¹ and the on-rate constant (kon) was found to be 189000 M⁻¹ s⁻¹.
With “Trastuzumab(N30A/H91A)-SDF-1α(8-67)^(H) (antibody)”, the on-rate (kon) in assay [9] came out at 290000 M⁻¹ s⁻¹; in assay [13], 310000 M⁻¹ s⁻¹. For the same substance, the Kd in assay [14] was < 0.01 nM.
With “SLy1(254-316)^(H)-Obinutuzumab(F101L)/HetFc-SDF-1α(8-67)^(H) labeled with muGFP at the C-terminus of the light chain (antibody)”, the percent bound to SU-DHL5 cells at 10 nM in the assay with CD20 on SU-DHL5 cells is 90%.
Regarding “SLy1(254-316)^(H)-Trastuzumab(N30A/H91A/Y100A)/HetFc-SDF-1α(8-67)^(H) (antibody)”, in assay [11], the equilibrium dissociation constant (Kd) is < 0.8 nM. In assay [15], this substance yielded a Kd of 0.8 nM, a koff of 5.8e-05 s⁻¹ and a kon of 71000 M⁻¹ s⁻¹.
